Experimental data: the NTF2 design screens of Basanta et al. (2020)

experiment: protease stability score; higher = more stable; yeast display proteolysis, trypsin and chymotrypsin;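 also: relative to predicted unfolded state with 0 unfolded-like and 1 meaning tenfold more protease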

Question: For “DDRDEVVEVASRLWMEIVETGDEDLFIRLLDPRTRIHIGDKTLHGREQVLDFLREHNRNLGIDRVEVRVERTEIQGEKVVVHSINIFNGKEWHVITIAHKINGRWITKEFHLH”, which protease stability score is on record?
Answer: Its protease stability score is 0.834.

Question: Which protease stability score does the source give for “DEMEKWSEMALDLIAETVETGDEHTYRRNFDPHTRVNVNGRHLHGMEVWLKELHELGIDRIEMDMKDIRIQGDKAIIILTLIINGRFHHVSIVSVKIDGRWHLHSVKYD” here?
Answer: The protease stability score was 0.33.

Question: With “DEDTLIAKEIAELIIHALLTGDEDILKRLMDPTVKNDVNGVEFHGREILYKLLLEMRIHRVEYTHIDMRIYNGRAEVRIHGKIHVTINGVHDDKERRIDIIIVKINGKWTIESFVVHRL” as the sequence, how does the protease stability score read?
Answer: The protease stability score was 2.53.

Question: For “DEEEDKLRKFADHFWHLRLTGDFDIWEHLADPDTKENQGEYSNIGREHISEYNLRETRKFKNIRMHIRRKTIQGDKIKIDGVLIFNGVEIEVILILIVINGRIREVRVHIE”, which protease stability score is on record?
Answer: Its protease stability score is 1.6.

Question: Which protease stability score does the source give for “DEEEKYSKEANTMSRHLVETGDEEIMSKLLDPDVRNDVDGVEFHGRELLSRILKEWRVRFESMHIEDEELQGDKVIVHGRELVRMIYDGKTFNTERKVIFIVVKINGRWFIKEVKVL” here?
Answer: Its protease stability score is 0.751.

Question: With “EEDQKMLEMVFRIILDLWITGDFDLIERLLDPDVRLDSKIGDKTVHHHGREEVAKHLFHIRIEDFIIHRVHVQGDKITINGELDGHFNGKRFNSEIHIHYVVINGRIRRLSFEEN” as the sequence, how does the protease stability score read?
Answer: The protease stability score was 2.2.

Question: With “SEEEHVAEELIKQFLRKFSTGDEDSMRNLFDPNVKIEQGEFDIHGREEETRYFRELRVHIEDSTAREIRVQGDKVDIDLEVVGIVHFNGKTVRRIIRTRVHLLKVDGQWHIKSIQIL” as the sequence, how does the protease stability score read?
Answer: Its protease stability score is 1.24.

Question: With “SEEERSAIEFITRWIQAFETGDEDTLHKLADPNMKIWINGRELIGMQRFIRELQEEMTKRGVRIHIRIEDMRVFNGRLHTDGQFKLEVNGVDVFTTTYLLINKINGKWILEHVNIN” as the sequence, how does the protease stability score read?
Answer: Its protease stability score is 1.3.

Question: With “SERDKFTEEVARLWYHLLYTGNEELLQHMMDPDVRVHINGRTVVGRHEATRLLHELSETFGINHIHIHDIKIQGDKSDDDTEIQAPGRRVRVHIHLEIINGRIKRIEFRIE” as the sequence, how does the protease stability score read?
Answer: Its protease stability score is 1.68.

Question: Which protease stability score does the source give for “DEEKRHDEKLVEDFIHNVLTGDWEKLLRNMDPHARIHVDVGNFREERVGREDWIETLARRKNARFHIESYRIYNGQVDMEVRIEQGDKEHKFKLIIKFVDGVVRSISMQVE” here?
Answer: The protease stability score was 1.26.

Question: Which protease stability score does the source give for “DEEHEDAVRIWEEFLEAVITGDWDRLKTLLDPNVRLHQGDFEIHGREKIVKTIHEMRIHIHDHRFRDSHFINGRVKLHVESDKEIIYGNKKTRLTVHVTVIIHKVNGVWLVHSVHVE” here?
Answer: Its protease stability score is 0.986.

Question: For “DEHKEEIKKFIEEWERSMITGDEDRLWELADPNTRLRQGEFEIHGMEILIEAEHRIVEKYKGLTIESIEMKHIDIINGVVVLYSKIRVRQGDKETEIFIIIYIIKINGQWRLHSLEIR”, which protease stability score is on record?
Answer: The protease stability score was 1.34.

Question: With “DEEDEILERLFKLWIEEFLTGDWEAFHRYFDPRTRIHIGDKHHHGRTEYEKVAKHLNKRIDHVIIIIRRMEHQGDYIKVDTESRHKIDGVDISTHYILHHRIVDGKIHEIDVIYL” as the sequence, how does the protease stability score read?
Answer: Its protease stability score is 0.647.

Question: Which protease stability score does the source give for “DKEEELVKKFLELWLHALRTGDEDFIRELFDPHARFVFDGRDFHGMEEFIRIMRHIRFHHIHLHHFDLQGDYVRLDTRVDGNVDGKRVTINTHMIMHKVNGRWVLESYTID” here?
Answer: The protease stability score was 0.839.

Question: With “SEDDERQRWIIEELVKTERTGDEHRRMELADPDYRLEIGDKEVHGMEEASRILHDELFNLGINHMHIKEWRVQGDKVHLEGLMVVGDKTHRVRIHYVIVNGRVKTLKWRID” as the sequence, how does the protease stability score read?
Answer: The protease stability score was 1.33.

Question: For “GENEQLIEEAVKMFMDIHHTGDWRDVHHLLDPHMRLDVNGVDYHGRDLWVRIAKEISEHARTEVRIRHLEIQGDKVIVHGQIILRIGDKTHVIDTRHIIIKINGRWKLHSVDIH”, which protease stability score is on record?
Answer: Its protease stability score is 1.32.

Question: Which protease stability score does the source give for “DKEEHDMKRLADLMKRIFETGDWEEFWSLVDPNVRLHWIVNGREYEVIGRENASEMIEITLELLGVDHVEIHDIDVQGDKVHMKTRSIVNGREIDDNYHYIIVDGRLRRVEIKLK” here?
Answer: Its protease stability score is 1.81.

Question: Which protease stability score does the source give for “DEDTKIIKEMLDEMVHATLTGNEDLLRELVDPEVRIRVGDKEKHGWEFLFHMLKHLRIDRSEITIHSIRVVNGRVEVDGELRIIFTIGDKHIEFSTRVHIILEKVDGRWRVQALLFH” here?
Answer: Its protease stability score is 0.688.

Question: Which protease stability score does the source give for “NREDRELEDFIWEILEAWRTGDEDEHHRLLDPHTRHHFNGRVSHGREMVEYIFKQFDHIHRFEYRDFSVQGNKAHVFAQVDVRIGDKIITFDVTIEVEKVNGRWVLRELSIH” here?
Answer: Its protease stability score is 1.31.

Question: Which protease stability score does the source give for “SEEEEAKRDLDERWFRSIETGDFHTLEKLLDPHAKVRINGKDYHGREYLEWEIRDLGVKVMEQRVIIHREHRQGDKIHLQGEIIRILHVDGREEHHRFEVHYVMLKINGRWILHRMEFR” here?
Answer: The protease stability score was 0.883.

Question: Which protease stability score does the source give for “DERLEIARRVVELSIRMLHTGNEEVVRHLLDPNYRLHINGVHLIGMEEFSKWLKELRFDLEHVQMHHITDINGRLFVIGEIIGRLHYDGVTVREERESIWFIEKVDGKWIIKEVELR” here?
Answer: Its protease stability score is 1.18.

Question: For “DEDEKASKVFVRLIKESIETGDEDTITHLADPNVRVIIGDKELHGWEELSRILHELRIHRFIVRREHVYDGRVQIDGRMDTEINGKKFITEVHVDAIKINGVWWLHLVEIR”, which protease stability score is on record?
Answer: The protease stability score was 1.38.

Question: For “DEEDELAEHLLHIIIDALETGDWKFFADYFDPHTRLEIEIGDKRFQLHGRESIRKRWEEIWRELGVKHREIKSTRLIGDKIEMDVTINVGDKRIRHHIVIVIVNGRMKKEMVIVR”, which protease stability score is on record?
Answer: The protease stability score was 1.19.

Question: With “DEEHTDITRATEHLIDSMETGDEDRLQELFDPNTLMRINGRRHHGREDMREFIRELVEKVKNLKIEIDHIDVVGNKVRLEVTLRVNGQEISTHIIIVKVDGRWIVKRMHIN” as the sequence, how does the protease stability score read?
Answer: The protease stability score was 0.667.

Question: With “TEDSKLITDVLRHFTEAFITGDEHTLKRMADPHVRTEWDGVHLHGWEKFLKFIVTEHRKLGIDHMRVEVDHIESYGDKIHVEGTLVVIINGQEISRHVELVMVKIDGVWLFKSRHFR” as the sequence, how does the protease stability score read?
Answer: The protease stability score was 0.706.

Question: Which protease stability score does the source give for “DQHERELEHAMEMLEKILKTGDERLFEHYADPHIRLEIEINGRRIDDHGRDLVLHLWRKMGADHMNIRSIDIQGDKLILNSTIEFNGQIHRSRFISLKVNGRWFIESVRLQDT” here?
Answer: Its protease stability score is 0.907.

Question: With “DDNTKHAHELVERWRHIIETGDEDIMEEMLDPNVRLLIGDKDLHGRETVEIWLRVLIRRFKNVRLESVHLESVEIQGNKAFSRVRVDLRYNGREDSMDVVVVVYKIDGRWRVHELSVH” as the sequence, how does the protease stability score read?
Answer: Its protease stability score is 1.77.

Question: For “DEDHERTKLFSKLFLKWTHTGDWEKILENADPNVRMHIGDKNFHGMHEVWRFLHEHLEKLGADVHSLTDLKIEAYNGVVVVHVEGTENINGRDITSRLHLIVIKVDGRWIIREIRVTIS”, which protease stability score is on record?
Answer: The protease stability score was 1.29.

Question: For “DEEKEEIELAIRLTEKMLKTGDEELWRENADPNARFVTENHDDHGREVIVKWVHEMRRKFKNMRLEIEDVRTFNGRLEIHLRLNVNGRDLKINIIVEKVNGRWFLREIEIQ”, which protease stability score is on record?
Answer: The protease stability score was 1.74.

Question: Which protease stability score does the source give for “DEDEEIDKHVAKHLEELFLTGDEKRLSQYFDPDVRNEVNGKEFHGRELLLKVLRDFGADHRTVEHREVSLYGEKMRFHIHLRLHVGDKSMTTILHIIIDKVNGRWHFEKIRIDVR” here?
Answer: The protease stability score was 0.798.

Question: With “SEDDHRAHEWFRIVFHWLLTGDEEHFDRYADPHTKVDINGVEFHGREEVRRWIYEIRLKDNRIRSVRAVGEKNESDGHRNGHIGDKHIVTDVEVRLHVVDGRIKSIHIIIH” as the sequence, how does the protease stability score read?
Answer: Its protease stability score is 0.981.

Question: With “SELEEFARKLMHIYSFAFLTGDWRLHEHMLDPHVRQEQGDKELHGMEDLERLMKRIDHVKHVEMLIEHLEVQGDKVRAHGKWRLIGTVNGQDVDVTIRAHFNIEKFDGVWVVREVRLL” as the sequence, how does the protease stability score read?
Answer: The protease stability score was 2.58.

Question: Which protease stability score does the source give for “DEEEEWLREVLRLIIEFLKTGDEDRLNEMADPTTRLRVGEFHHVGREEVHKFRKKKKDELGVDKIEFRLEDVRIQGDKATADGRVQYNGQEYKMRVIVVVVNGKVKSLTEEWE” here?
Answer: Its protease stability score is 1.07.

Question: For “SEDREFAEKMLRIVSDLENTGDEEKARHLLDPNVRSVIDGQDLIGWHLRRHWLHELRIKSHRVDVHDIHVYNGQIEFNVREDGNIVVNGVEIRIELRTKMTFRKFDGQWYVKSIEIK”, which protease stability score is on record?
Answer: Its protease stability score is 1.45.

Question: With “SEREEYSHRAVELLIHLLRTGDEDMISKLADPNTYLDWNGREEVGMEDWLRLLREMRIHDVIIHTIEIQGDKIHMDVIIDGEFDGRRTEMRVHLILLKVNGRWVLTEVKIH” as the sequence, how does the protease stability score read?
Answer: The protease stability score was 1.03.

Question: Which protease stability score does the source give for “DDDERDMDLALELIIRTIRTGDWELQSRLIDPHARLHIDGRDLHGMEEYVTILVEHWRRIKGVKVSITLHDRDVFDGVLHLDTEVELDFNGVRLHMKTEIISLKYNGRWFIKEIRVR” here?
Answer: The protease stability score was 0.654.
